In patent US20100222258A1 (KABUSHIKI KAISHA HAYASHIBARA SEIBUTSU KAGAKU KENKYUJO, published 2010):

Tests used:
[1] = molecular target: T1, TNF-R1 (a protein having the amino acid sequence, Accession No. M58286 registered at GENBANK) (UniProt P19438 30-211, limits assumed); assay: SPR (BIACORE 2000), receptor on sensor tip; grade 1 = 0.001 to 0.1 time that of recombinant TNF-α
T1 construct: also called TNF receptor having a molecular weight of 55 kilo daltons
T1 sequence (looked up): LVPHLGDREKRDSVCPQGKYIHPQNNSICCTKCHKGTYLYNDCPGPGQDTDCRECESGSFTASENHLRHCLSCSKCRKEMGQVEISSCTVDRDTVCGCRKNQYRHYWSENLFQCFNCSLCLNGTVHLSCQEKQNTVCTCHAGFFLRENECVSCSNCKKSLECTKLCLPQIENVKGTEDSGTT
Text: (§1) Using the above detector based on surface plasmon resonance effect again, the resulting clones binding to TNF-R1 (or TNF-R2) were subjected to the remaining sensor tip conjugated with TNF-R2 (or TNF-R1) to measure receptor binding affinity and select clones having a variation of receptor binding affinity. […] The resulting DNAs were digested with restrict enzymes NdeI and BamHI to obtain DNA fragments. The resulting DNA fragments were introduced into a plasmid vector containing T7 promoter region, T7 terminator region, ampicillin resistant gene region and ColE1/Ori region (product name “pET-3a”, manufactured by “Novagen®” (EMD Biosciences, Inc.)) at the position of the above restriction sites. The resulting plasmid was introduced into E. coli BL21DE3 strain to obtain a transformed E. coli for producing the TNF mutant proteins. The obtained transformed E. coli was cultured according to usual method and centrifuged to collect E. coli pellet. The resulting pellet was washed twice with TES buffer (pH 8.0) (20 mM Tris-HCl, 10 mM ethylene diamine tetraacetic acid and 0.5 M sodium chloride) and admixed with TES buffer (pH 8.0) containing 0.2 mg/ml lysozyme. The resulting suspension was sonicated according to usual manner, and centrifuged to collect a precipitate containing the produced TNF mutant protein. The resulting precipitate was treated three times in a manner of admixing with TES buffer containing 1 (w/w) % Triton X-100, removed from supernatant by centrifuging, admixed with 50 mM Tris-HCl (pH 7.0) containing 8 M guanidine hydrochloride and 50 mM dithiothreitol, with stirring for 16 hours at ambient temperature under shielded condition, and centrifuged to collect a supernatant. The resulting supernatant was gently admixed with 100 time volumes of a aqueous solution containing 1 M Tris, 0.9 (w/v) % sodium chloride, 0.4 M L-arginine chloride, 2.5 mM reduced glutathione, 0.5 mM oxidized glutathione and 0.05 (w/v) % Tween 20, and kept at 4° C. for 16 hours.

[2] = molecular target: T2, TNF-R2 (a protein having the amino acid sequence, Accession No. M55994 registered at GENBANK) (UniProt P20333 23-257, limits assumed); assay: SPR (BIACORE 2000), receptor on sensor tip; grade 4 = two times or more that of recombinant TNF-α
T2 construct: also called TNF receptor with 75 kilo daltons
T2 sequence (looked up): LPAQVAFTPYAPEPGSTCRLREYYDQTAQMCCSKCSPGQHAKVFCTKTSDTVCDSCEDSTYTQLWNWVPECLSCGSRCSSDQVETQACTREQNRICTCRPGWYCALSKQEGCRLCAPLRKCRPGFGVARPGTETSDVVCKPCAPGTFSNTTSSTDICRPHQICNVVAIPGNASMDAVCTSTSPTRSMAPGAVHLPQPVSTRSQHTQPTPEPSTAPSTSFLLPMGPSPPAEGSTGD
Text: as §1

[3] = molecular target: T2, TNF-R2 (a protein having the amino acid …); assay: SPR (BIACORE 2000), receptor on sensor tip; grade 3 = 0.5 to 2 times that of recombinant TNF-α
Text: as §1

[4] = molecular target: T1, TNF-R1 (a protein having the amino acid …); assay: SPR (BIACORE 2000), receptor on sensor tip; grade 0 = weakened to 0.001 or less of that of recombinant TNF-α
Text: as §1

[5] = molecular target: T1, TNF-R1 (a protein having the amino acid …); assay: SPR (BIACORE 2000), receptor on sensor tip; grade 2 = 0.5 to 0.1 time that of recombinant TNF-α
Text: as §1

TNF-R1 on HEp-2 cells = molecular target: T3, TNF-R1 on HEp-2 cells (human, UniProt P19438 30-455); assay: cell-based or functional assay
T3 sequence (looked up): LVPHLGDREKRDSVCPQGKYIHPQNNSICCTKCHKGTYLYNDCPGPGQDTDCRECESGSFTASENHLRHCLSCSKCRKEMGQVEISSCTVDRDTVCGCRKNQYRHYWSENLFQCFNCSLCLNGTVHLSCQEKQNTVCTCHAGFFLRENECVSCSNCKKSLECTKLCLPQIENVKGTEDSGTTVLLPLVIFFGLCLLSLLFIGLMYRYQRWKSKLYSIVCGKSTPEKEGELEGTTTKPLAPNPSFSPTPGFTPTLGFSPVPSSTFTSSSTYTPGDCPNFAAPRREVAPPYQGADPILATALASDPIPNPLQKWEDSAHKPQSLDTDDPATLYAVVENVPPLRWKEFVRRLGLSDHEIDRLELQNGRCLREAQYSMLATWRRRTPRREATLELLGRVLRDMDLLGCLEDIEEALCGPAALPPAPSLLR

TNF-R1 on L-M cells = molecular target: T4, TNF-R1 on L-M cells (mouse, UniProt P25118 30-454); assay: cell-based or functional assay
T4 sequence (looked up): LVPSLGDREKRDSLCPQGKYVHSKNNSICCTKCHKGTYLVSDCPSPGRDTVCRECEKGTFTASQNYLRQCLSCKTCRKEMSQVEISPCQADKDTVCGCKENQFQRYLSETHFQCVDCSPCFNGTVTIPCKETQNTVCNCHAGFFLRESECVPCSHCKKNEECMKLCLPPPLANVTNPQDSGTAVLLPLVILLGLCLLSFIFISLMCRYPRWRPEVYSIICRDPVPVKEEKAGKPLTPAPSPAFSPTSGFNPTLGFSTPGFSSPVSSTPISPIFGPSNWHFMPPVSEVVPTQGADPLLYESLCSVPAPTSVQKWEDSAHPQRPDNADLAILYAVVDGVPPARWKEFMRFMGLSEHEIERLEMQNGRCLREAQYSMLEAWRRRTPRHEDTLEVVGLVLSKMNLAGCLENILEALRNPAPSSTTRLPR

[6] = molecular target: T1, TNF-R1 (a protein having the amino acid …); assay: SPR (BIACORE 2000), receptor on sensor tip; grade 4 = two times or more that of recombinant TNF-α
Text: as §1

[7] = molecular target: T2, TNF-R2 (a protein having the amino acid …); assay: SPR (BIACORE 2000), receptor on sensor tip; grade 0 = weakened to 0.001 or less of that of recombinant TNF-α
Text: as §1

B1: TNF mutant protein of clone No. 10 (ligand)
chain: VRSSSRTPSDMPVAHVVANPQAEGQLQWLNRRANALLANGVELRDNQLVVPSEGLYLIYSQVLFSGQGCPSTHVLLTHTISRIAVSYQTPVNLLSAIRSPCQRETPEGAEANPWYEPIYLGGVFQLEPGDRLSAEINRPDYLDFKDTGQVYFGIIAL
notes: Mutant of lysine-replaced TNF, made in E. coli
binding affinity relative to recombinant TNF-α [1]: 0.001 to 0.1 fold
binding affinity relative to recombinant TNF-α [2]: ≥ 2 fold

B2: TNF mutant protein of clone No. 11 (ligand)
chain: VRSSSRTPSDMPVAHVVANPQAEGQLQWLNRRANALLANGVELRDNQLVVPSEGLYLIYSQVLFSGQGCPSTHVLLTHTISRIAVSYQTPVNLLSAIRSPCQRETPEGAEANPWYEPIYLGGVFQLEPGDRLSAEINRPDYLDFRTDGQVYFGIIAL
notes: as for B1
binding affinity relative to recombinant TNF-α [3]: 0.5 to 2 fold
binding affinity relative to recombinant TNF-α (grade) [4]: ≤ 0.001 times that of recombinant TNF-α

B3: TNF mutant protein of clone No. 12 (ligand)
chain: VRSSSRTPSDMPVAHVVANPQAEGQLQWLNRRANALLANGVELRDNQLVVPSEGLYLIYSQVLFSGQGCPSTHVLLTHTISRIAVSYQTPVNLLSAIRSPCQRETPEGAEANPWYEPIYLGGVFQLEPGDRLSAEINRPDYLDFRETGQVYFGIIAL
notes: as for B1
binding affinity relative to recombinant TNF-α [1]: 0.001 to 0.1 fold
binding affinity relative to recombinant TNF-α [3]: 0.5 to 2 fold

B4: TNF mutant protein of clone No. 13 (ligand)
chain: VRSSSRTPSDMPVAHVVANPQAEGQLQWLNRRANALLANGVELRDNQLVVPSEGLYLIYSQVLFSGQGCPSTHVLLTHTISRIAVSYQTPVNLLSAIRSPCQRETPEGAEANPWYEPIYLGGVFQLEPGDRLSAEINRPDYLDFADDGQVYFGIIAL
notes: as for B1
binding affinity relative to recombinant TNF-α [5]: 0.1 to 0.5 fold
binding affinity relative to recombinant TNF-α [2]: ≥ 2 fold

B5: TNF mutant protein of clone No. 35 (ligand)
chain: VRSSSRTPSDMPVAHVVANPQAEGQLQWLNRRANALLANGVELRDNQLVVPSEGLYLIYSQVLFSGQGCPSTHVLLTHTISRITPAINRPVNLLSAIRSPCQRETPEGAEANPWYEPIYLGGVFQLEPGDRLSAEINRPDYLDFAESGQVYFGIIAL
notes: Mutant of lysine-replaced TNF, made in E. coli; also called TNF antagonist of clone No. 35
Viability (%) of HEp-2 cells, 10 ng/ml TNF-α + 1,000 ng/ml TNF antagonist (9 without antagonist) (TNF-R1 on HEp-2 cells): 10%
Viability (%) of HEp-2 cells, 10 ng/ml TNF-α + 10,000 ng/ml TNF antagonist (9 without antagonist) (TNF-R1 on HEp-2 cells): 18%
Viability (%) of HEp-2 cells, 10 ng/ml TNF-α + 100,000 ng/ml TNF antagonist (9 without antagonist) (TNF-R1 on HEp-2 cells): 86%
Viability (%) of HEp-2 cells, 10 ng/ml TNF-α + 500,000 ng/ml TNF antagonist (9 without antagonist) (TNF-R1 on HEp-2 cells): 103%
Viability (%) of L-M cells, 10 ng/ml TNF-α + 1,000 ng/ml TNF antagonist (17 without antagonist) (TNF-R1 on L-M cells): 43%
Viability (%) of L-M cells, 10 ng/ml TNF-α + 10,000 ng/ml TNF antagonist (17 without antagonist) (TNF-R1 on L-M cells): 58%
Viability (%) of L-M cells, 10 ng/ml TNF-α + 100,000 ng/ml TNF antagonist (17 without antagonist) (TNF-R1 on L-M cells): 61%
Viability (%) of L-M cells, 10 ng/ml TNF-α + 500,000 ng/ml TNF antagonist (17 without antagonist) (TNF-R1 on L-M cells): 64%
binding affinity relative to recombinant TNF-α [6]: ≥ 2 fold
binding affinity relative to recombinant TNF-α (grade) [7]: ≤ 0.001 times that of recombinant TNF-α
